The source of these data is the nanobody polyreactivity screen of Harvey et al. (2022).

The data set in a line: yeast display, Sf9 membrane polyspecificity reagent, FACS + sequencing; frameworks hold sequencing errors. A digest of the protocol:
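A synthetic nanobody library was expressed on Saccharomyces cerevisiae BJ5465 by galactose induction for 36–48 hours. The library was stained for 1 hour at 4 °C with 10% biotinylated, detergent-solubilized Sf9 membrane reagent and enriched with streptavidin microbeads before FACS. Low and high (top ~1%) gates were set on anti-HA fluorescence for expression and streptavidin fluorescence for reagent binding, and each polyreactivity label reflects the gate of origin.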
For “QVQLVESGGGLVQAGGSLRLSCAASGRTFSYYAMGWYRQAPGKERELVAAISWRGGSTYYADSVKGRFTISRDNAKNTVYLQMNSLKPEDTAVYYCAALPRYALGEDYWGQGTQVTVSS”, the “polyreactivity (PSR sort gate)” value is given as “high polyreactivity”. The result for “QVQLVESGGGLVQAGGSLRLSCAASGRTFSYYAMGWYRQAPGKERELVARITYRGGRTYYADSVKGRFTISRDNAKNTVYLQMNSLKPEDTAVYYCNADAINKRGGLDYWGQGTQVTVSS” reads “high polyreactivity”; that for “QVQLVESGGGLVQAGGSLRLSCAASGRTFSYYAMGWYRQAPGKERSLVAAISWSGGRTYYADSVKGRFTISRDNAKNTVYLQMNSLKPEDTAVYYCAARYVYPYWYGDYYWGQGTQVTVSS”, “low polyreactivity”; that for “QVQLVESGGGLVQAGGSLRLSCAASGRTFSYYTMGWYRQAPGKERELVARISNRGTNTYYADSVKGRFTISRDNAKNTVYLQMNSLKPEDTAVYYCNTEDFFNVPEMDSWGQGTQVTVSS”, “low polyreactivity”.

As for “QVQLVESGGGLVQAGGSLRLSCAASGRTFSYYVMGWYRQAAGKERELVAAISRTTRTYYADSVKGRFSISRDNAKNTVYLHMNSLKPEDTAVYYCAADFPKGHYHYWGHGTQVTVSS”, the “polyreactivity (PSR sort gate)” value was “high polyreactivity”. With “QVQLVESGGGLVQAGGSLRLSCAASGRTFTFNAMGWYRQAPGKETELVAAISTSGGSTYYADSVKGRFTISRDNAKNTVYLQMNSLKPEDTAVYYCNTYPYYRAGGSDYWGQGTQVTVSS”, the “polyreactivity (PSR sort gate)” value is on record as “high polyreactivity”. The result for “QVQLVESGGGLVQAGGSLRLSCAASGRTFTFYTMGWYRQAPGKERELVAAITSGGSTYYADSVKGRFTISRDNAKNTVYLQMNSLKPEDTAVYYCAAKYYYTYYYWGQGTQVTVSS” reads “high polyreactivity”. In the case of “QVQLVESGGGLVQAGGSLRLSCAASGRTFTGNTMGWYRQAPGKERELVAAISSSGGRTYYADSVKGRFTISRDNAKNTVYLQMNSLKQVDTAVYYCNATIWRTQYGYWGQGTQVTVSS” it was “high polyreactivity”; in that of “QVQLVESGGGLVQAGGSLRLSCAASGRTFTGNVMGWYIKAPGKERELVAAISRSGTSTYYADSVKGRFTISRDNAKNTVYLQMNSRKPEDTAVYYCAARRTAGYRSAEYDYWGQGTQVTVSS”, “high polyreactivity”. In the case of “QVQLVESGGGLVQAGGSLRLSCAASGRTFTGYAMGWYRQAPGKERELVAAISSRVGSTYYADSVKGRFTISRDNAKNTVYLQMNSLKPEDTAVYYCAKDSQSYTREAYYYWGQGTQVTVSS” it was “low polyreactivity”; in that of “QVQLVESGGGLVQAGGSLRLSCAASGRTFTGYAMGWYRQAPGKERELVAAITRSGTRTYYADSVKGRFTISRDNAKNTVYLQMNSLKPEDTAVYYCAAADTQGVSMDYWGQGTQVTVSS”, “high polyreactivity”; in that of “QVQLVESGGGLVQAGGSLRLSCAASGRTFTGYAMGWYRQAPGKERELVAAMSASGGSTYYADSVKGRFTISRDNAKNTVYLQMNSLKPEDTAVYYCAAETWYSVLWEEGYDYWGQGTQVTVSS”, “low polyreactivity”. Take “QVQLVESGGGLVQAGGSLRLSCAASGRTFTGYTMGWYRQAPGKEREFVAAISSNGGRTYYADSVKGRFTISRDNAKNTVYIQMNSLKPEDTAVYYCAAPYTFWGQGTQVTVSS”: the “polyreactivity (PSR sort gate)” value is “high polyreactivity”. In the case of “QVQLVESGGGLVQAGGSLRLSCAASGRTFTHNTMGWYRQAPGKERELVAAISRSGASTYYADSVKGRFTISRDNAKNTVYLQMNRLKPEDTAVYYCNAYSRPHFGYVVGTKSRHGYWGQGTQVTVSS” it was “high polyreactivity”; in that of “QVQLVESGGGLVQAGGSLRLSCAASGRTFTHYAMGWYRQAPGKERELVAAISRSGGTTYYADSVKGRFTISRDNAKSTVYLQMNSLKPEDTAVYYCNAEVVDFELGVFEDYYWAYDYWGQGTQVTVSS”, “high polyreactivity”; in that of “QVQLVESGGGLVQAGGSLRLSCAASGRTFTHYAMGWYRQAPGKERELVAAISSGGGTYYADSVKGRFTISRDNAKNTVYLQMNSLKPEDTAVYYCNADYTNYHDPFRTYGYWGQGTQVTVSS”, “low polyreactivity”.

On to “QVQLVESGGGLVQAGGSLRLSCAASGRTFTINAMGWYRQAPGKERELVATIRVSGGSTYYADSVKGRFTISRDNAKNTVYLQMNSLKPEDTAVYYCAKGGTYFYAPAYDYWGQGTQVTVSS”, for which the “polyreactivity (PSR sort gate)” value is “low polyreactivity”. In the case of “QVQLVESGGGLVQAGGSLRLSCAASGRTFTINTLGWYRQAAGKERELVAAIVGDGTTNYADSVKGLFTISGDNAKNTVDLQMNSLKPEDTAVYYCAADAGYLYDWPYNSYYWGQGTQLTVSS” it was “low polyreactivity”; in that of “QVQLVESGGGLVQAGGSLRLSCAASGRTFTIYARGWYRQAPGKERELVAAIRRTGVSTYYADSVKGRFTISRDYAKNTVYLQMNSLKPEDTAVYYCAARQYSYLRLWWYEYWGQGTQVTVSS”, “high polyreactivity”. The result for “QVQLVESGGGLVQAGGSLRLSCAASGRTFTNNAMGWYRQAPGKERELVAAIRWSGGSTYYADSVKGRFTISRDNAKNTVYLQMNSLKPEDTAVYYCAKGYGYVEAVIVQYDYWGQGTQVTVSS” reads “low polyreactivity”; that for “QVQLVESGGGLVQAGGSLRLSCAASGRTFTPNAMGGYRQAPGKERELVAAIDWRGGRTYYADSVKGRFTISRDNAKNTVYLQMNSLKPEDSAVYYCAARVDGYHYKSAGYSYGVYYWGQGTQVTVSS”, “low polyreactivity”. The result for “QVQLVESGGGLVQAGGSLRLSCAASGRTFTPNAMGWYRQAPGKERELVASIRRGTSTYYADSVKGRFTISRDNAKNTVYLQMNSLKPEDTAVYYCAAKSYHGYPFDYWGQGTQVTVSS” reads “high polyreactivity”; that for “QVQLVESGGGLVQAGGSLRLSCAASGRTFTPYAMGWYRQAPGKERELVAAINSDGSTNYADSVKGRFTISRDNAKNTVYLHMNSLKPEDTAVYYCAAGYSLEGDYWGQGTQVTVSS”, “low polyreactivity”. With “QVQLVESGGGLVQAGGSLRLSCAASGRTFTPYAMGWYRQAPGKERELVATISSGTSTNYADSVNGRFTISRDNAKNTVYLQMNSLKPEDTAVYYCAADGYTYKFDYWGQGTQVTVSS”, the “polyreactivity (PSR sort gate)” value is reported as “low polyreactivity”. In the case of “QVQLVESGGGLVQAGGSLRLSCAASGRTFTPYDMGWYRQAPGKERELVAAITWRGGSTYYADSVKGRFTISRDNAKNTVYLQMNSLKPEDTAVYYCAKDRWTYAFRVGYGYWGQGTQVTVSS” it was “high polyreactivity”; in that of “QVQLVESGGGLVQAGGSLRLSCAASGRTFTRNAMGWYRQAPGKERELVAAISYSGGSTYYADSVKGRFTISRDNAKNTVYLQMNSLKPEDTAVYYCNAATSRRSIRYDYWGQGTQVTVSS”, “high polyreactivity”; in that of “QVQLVESGGGLVQAGGSLRLSCAASGRTFTRYAMGWYRQAPGKERELVAAISWSGTSTHYADSVKGGFTISRDNATNTVYLQMNSLKPEDTAVYYCAARRYPVLKYDYWGQGTQVTVSS”, “high polyreactivity”. In the case of “QVQLVESGGGLVQAGGSLRLSCAASGRTFTRYTMGWYRQAPGKERELVAAIRYSGGSTYYADSVKGRFTISRDNAKNTVYLQMNSLKPEDTAVYYCAARSYYYGFLYRYDYWGQGTQVTVSS” it was “low polyreactivity”; in that of “QVQLVESGGGLVQAGGSLRLSCAASGRTFTSYAMGWYRQAPGKEREFVAAITTSGGSTYYTDSVKGRFTISRDNAKNTVYLQMNSLKPEDTAVYYCAAYVAYDRSGQYDYWGQGTQVTVSS”, “high polyreactivity”. In the case of “QVQLVESGGGLVQAGGSLRLSCAASGRTFTSYAMGWYRQAPGKERELVAGISSGGSTFYADSVKGRFTISRDNAQNTVYLQMNSLKPEDTAVYYCAADFRRVFSKYSYYLYFDFDYWGQGTQVTVSS” it was “low polyreactivity”. Turning to “QVQLVESGGGLVQAGGSLRLSCAASGRTFTVNRMGWYRQAPGKERELVAGITLRGANTYYADSVKGRFTISRDNAKNTVYLQMNSLKPEDTAVYYCNDDVKYRYNHWGQGTQVTVSS”, the “polyreactivity (PSR sort gate)” value is given as “high polyreactivity”.

Take “QVQLVESGGGLVQAGGSLRLSCAASGRTFTVYAMGWYRPAPGKERELVAAISSGGITYYADSVKGRFTISRDNAKNTVYLQMNSLKPEDTAVYYCNTKSGKARYEFGYWGQGTQVTVSS”: the “polyreactivity (PSR sort gate)” value was “low polyreactivity”. In the case of “QVQLVESGGGLVQAGGSLRLSCAASGRTFTVYAMGWYRQAPGKEREFVASISKSGGRTYYADSVKGRFTISRDNAKNTVYLQMNSLKPEDTAVYYCAKVETYLQIAYRRGYDSWGQGTQVTVSS” it was “low polyreactivity”; in that of “QVQLVESGGGLVQAGGSLRLSCAASGRTFTVYAMGWYRQAPGKERELVATISGSTGSTYYADSVKGRFTISRDNAKNTVYLQMNSLKPEDTAVYYCAARVRYRYLIGSGFDYWGQGTQVTVSS”, “low polyreactivity”. In the case of “QVQLVESGGGLVQAGGSLRLSCAASGRTFTYNAMGWYRQAPGKDRELVASIRRSGTITYSADSVKGRFTISRDNAKNTVYLQMNSLKPEDTAVYYCAARYPWYRYYSWGQGTQVTVSS” it was “high polyreactivity”. In the case of “QVQLVESGGGLVQAGGSLRLSCAASGRTFTYNAMGWYRQAPGKERELVAAISSSGGRTYYADSVKGRFTISRDNAKNTVYLQMNSLKPEDTAVYYCNKVKYRFSPPGYDYWGQGTQVTVSS” it was “high polyreactivity”; in that of “QVQLVESGGGLVQAGGSLRLSCAASGRTFTYNTMGWYRQETGKQRELVAAISSSGGSTYYADSVKGRFTISRDNAKNTVYLQMNSLKPEDTAVYYCAKRYFSSSRYYYWGQGTQVTVSS”, “high polyreactivity”. As for “QVQLVESGGGLVQAGGSLRLSCAASGRTFTYNVLGWYRVAPGKERELVAAITSGGSNYADSVKGRFTISRDNAKNTVYLQLNSLKPEDTAGYYCATDYYDDVTIGYDYWGPGTQVTVSS”, the “polyreactivity (PSR sort gate)” value was “low polyreactivity”.

Regarding “QVQLVESGGGLVQAGGSLRLSCAASGRTFTYYAMGWYIQAPGKERELVAAISSGGRTYYADSVKGRFTISRDNAKNTVYLQMNSLKPEDTAVYYCAADAYRSPWRLYGSRFGYWGQGTQVTVSS”, the “polyreactivity (PSR sort gate)” value is “high polyreactivity”. In the case of “QVQLVESGGGLVQAGGSLRLSCAASGRTFTYYAMGWYRQAPGKERELVAAISRGGGSTHYADSVKGRFTISRDNEKNTVYLQMNSLKPEDTAVYYCAARYSTRYKYDYWGQGTQVTVSS” it was “high polyreactivity”; in that of “QVQLVESGGGLVQAGGSLRLSCAASGRTFTYYAMGWYRQAPGKERELVAAITGRGGRTYYADSVKGRFTISRDIAKNTVYLQMNSLKREDTAVYYCATRDPYYSSEYTYGYWGQGTQVTVSS”, “high polyreactivity”.
